tested on: K4 kissing-loop RNA reporter; assay: apparent KD of K4 kissing-loop reporter; higher = weaker reporter binding; settings: Eterna round: R107; input ligand: arginine 13.2 mM
Protocol: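 RNA-MaP round R107: designed RNA switches with theophylline, tryptophan, arginine or FMN aptamers are transcribed on-chip within common flanks. They are titrated with a labelled K4 kissing-loop RNA reporter in RNA-MaP buffer (100 mM Tris pH 7.5, 80 mM KCl, 4 mM MgCl2), without ligand or with the indicated ligand. Median apparent KD per design.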
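Further: bound reporter read as fluorescence of individual clusters on recovered sequencing chips by microscopy, with normalized cluster intensities fitted with a binding model.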

Sequence	apparent KD of K4 kissing-loop reporter
GAACAUAGUAAAGGAUAUUCCUGCCUCGCGCGAUUGAUUAGUGAUGUUGACGAUAUCGCUUUGAGGGAAGAAGGUUAACAAGUCA [theeternabot_exclusion_KL_FMN_B_4]	659 nM
CCGGAUUAUGCGGCCGCCACUGAGAAAUUGGAGGUACGCCCUCCCGAUAGUGAUGUUAUCCAUUACAGGACCGGGCAUCUCCUCU [theeternabot_sameState_KL_Trp_B_23]	421 nM
UUAUUAAUCACAGAUACCAGUCCAGAAUGAAUACUAUAGUGAUGUUAUAAUAAAGGGAAGGACCCUUGGCAGCUGUAAUAUAUUU [AstrosSsTheB#2]	370 nM
AAGUUUUAUAAACUCAUGGUUUCGUCAGAUACCAGCCUCGAGAGAGGCCCUUGGCAGCUGCAUGAGUGAUGUUCAUGUUCGAAGA [KL_XTheoA8]	260 nM
GGGAGUAGUGCGGCCGCCACUGUGAGGGAAGAAGAAUAUAGUGAUGUUAUAUAGGAAGGGAAGAAUAGGACCGGGCAUUAGAUUU [SSTRyptB.aB]	208 nM
UCCUAGGCUCGAAAGAGCCUAGGAUUUACUCAGGAUAUCCGGAAACGGAGAAGGGAGUGACUAGUGAUGUUAGGGACUCCCUAAA	80.8 nM
AAAUAUAGUGAUGUUAUAUAUAUAUGUGAUACCAGAGAAAGAAAACUCCCUUGGCAGCACGAGAGAGAAUUUUUUUUUUAUAUAU [AstrosSSTheA#1]	398 nM
GGGUCAUGGAACGGAUAAGUGAUGUUUACCCGAGGACCGGUACGGCCGCCACUCGGUCGUUAUUUCCGACGUGCUGGUAAGACUA [theeternabot_exclusion_KL_Trp_A_10]	253 nM
AGACUACUGACAGGAUAUAACAUCCUAGUCGUAUACCGAAAGGUAUACGAUUCCCUUCUAGUGAUGUUAGAAGGGUCGGUAGUCA [Omei KL FMN B Exc B v13]	93.4 nM
UGUGUUUACCUGACUCAGUGAUGUUGAGAAGGAGCGUGAGAAGGCACAGGUAGGUCGCUCAACCUAAAUUCAGGUGAGCACUAAA	188 nM
UUUAUAUAGUCGGCCGCCACUGAUUUUUUUAUAUGUUUAUGUUUAUACGAGUGAUGUUCGAUAUACAGGACCGGGACUUUGGUUA [JR_SSTryptoB_Sub019]	207 nM
UCCUUUGUUGCCAGUGAUGUUGGACAGGAAGGAGCGGGCAUAAGCCCAGGUAGGUCGCCUGUCAACUUUCUUAUAGCCCUAAGGU [KL-XArg-A16]	329 nM
CGAGCGCGUGCGGCCGCCACUACUAUAAGUCGUCCAAGUUAGUGAUGUUGACUGAACGUCGGAAAUAGGACCGGGCAUAGUUUUA [theeternabot_sameState_KL_Trp_B_40]	410 nM
UGUCAUGGAAACAUGACCGUUAAAAUAAAUCGAGGACCGGUACGGCCGCCACUCGUAUAGCGGUCAGUGAUGUUGACUGUAGUAC [KL-SSTryp-A form2 sub12 #dotplot2>1]	428 nM
CAUAGGAAACUAUGUUUCUCUCUUACUGAAGGAGCGCGUGAAAACGCAGGUAGGUCGCAGAAUUUGAGAGUGAUGUUCUCAAUAA [Ex Arginine A K4 13]	149 nM
UGUCAUUGGUCUGAUACCAGUACCCUUGGCAGCCAAGGAGUGAUGUUCCGAGGAUACCAGUGCCCUUGGCAGCAGACCGAUGACU [TheoBS 27 #DoubleAptamer #SwitchBubble]	308 nM
UCCACGCUUAGAGGAUAUCGGAUUAGAGUGAUGUUCUAAAGACGCCCAGUGAUGUUGGAUGGUAUACGAGAAGGCUGUGGCGUGU [Same State FMN B GF5]	539 nM

Sequence	apparent KD of K4 kissing-loop reporter
AUGAGGAGCAGUGAUCCUAUUCCAUGGGAAGGAGCGUAGGAUACUACAGGUAGGUCGCCCAGUGAUGUUGGGCGCGUGCUCUUGG [Zaqua]	133 nM
UGACUGGAUUGAAGGAGCGCUAAACUCCUAGUGAUGUUAGGGACACGAGACAAAGUCUCGAGGCAGGUAGGUCGCAAUCUAGUCU [FiskerMod 6 - Jieux - Same State - Arginine B]	225 nM
GGAUAGGACAGAGGAUAUGGGCUAGGCAAGAAUAACUUGUCUAGCAAAUCCAUGAGGAGUGAUGUUCCAGAAGGCUGUCCUAUCG [FmnBX 1 - #SwitchBubble #StraticStem #DoubleMagnetSystem]	167 nM
ACCACCAGCCGCACGAUACACGGGCAUUACCGAGGACCGGUACGGCCGCCACUCGCCCGCACGCUGGAUCGAGUGAUGUUCGAUC [theeternabot_sameState_KL_Trp_A_15]	334 nM
AGCGGCCAGUCGGCCGCCACUCCAAGCAGUGAUGUUGCUAAGUUUCUACAAGAGUGAUGUUCUUAGAGGACCGGGACUGAUGUGA [Exclusion Tryptophan B Gf 7]	240 nM
UAGGCCGCAUACAUUAGAUAAGGUACCGAUACCAGCCUCGCACCAGGCCCUUGGCAGCGGCAUCAAAUGGGUAGUGAUGUUACCU [theeternabot_exclusion_KL_Theo_A_20]	135 nM
GUUACGCAUGGAAGGAGCGCACUCCGAUUGGGCGACACAGUGAUGUUGUGGUUCGUUCGAAUGCAGGUAGGUCGCCAUGUGUAAC [Ex Arginine B K4 20]	153 nM
AACACUCACGGAGUGAUGUUCUGGAAUAAACGAGGACCGGUACGGCCGCCACUCGAAAAUGAGUGAGUCCUACGAAAAGUAGGAC [Omei inspired 4]	394 nM
AAUUUAUAUUUAUUCUUUAAAUGUUCAGAAGGAGCGUGAAUUAUCACAGGUAGGUCGCUGAGCUAGUGAUGUUGGCUAUAUACUA [whbob_Ex_Arginine_A_2t124]	219 nM
GGCACUUUUGGUAGAAACCAUCUACCUCUAUAGGAUAUGCCGAAAGGCAGAAGGAUAGACCUACAGAGUGAUGUUCUGCGUGCCU	406 nM
GCCCGGGCGAGUGAUGUUCGCCCACGUGAUACCAGUGCCAUCCAACACCCUUGGCAGCACGCGGGCAGUGAUGUUGCCCUUGUAU [Exclusion Theophylline A GF 4]	110 nM
UGCAUGCUUAGAGUGAUGUUCUAAGAUGAUACCAGUGCUUUUUUGCACCCUUGGCAGCGUCUGAUUGCAUGCACGUCGAAAGACG	287 nM
AUGCGCAGCCUGCUUACGUAUGAGCCGGAAGGAGCGGCAGAAUUGCCAGGUAGGUCGCCGGCCCAGUGAUGUUGGGAUGGUGUGG [Atusqubela]	167 nM
ACGUGCACCAGUGAUGUUGGAAAAUAUGAAGGAGCGGGAGAAAGCCCAGGUAGGUCGCAUAAUAGCACGAGCCACGAAAGUGGCA	145 nM
CGUUUAUAGCAGGAUACCAGUACCCAUUAAGUACGUUAAUAGUAGAGUGAUGUUCUAAAGUACCCUUGGCAGCUUCCCGUGACCC [ExTheophylB.X]	164 nM
UGACAUUGCUCAGAUACCAGACAUGAGCAUCAGCCAUGUACCAAGAAAACGUACAUAAAUGUCCCUUGGCAGCUGAGCAAUGUCU [TheoBX 10]	39.8 nM

same assay, conditions: Eterna round: R107; input ligand: none

Sequence	apparent KD of K4 kissing-loop reporter
GCUAUGGUAGGAAGGAGCGCUUAUUUAUUUUUAAGAGUGAUGUUCGAUAGUAGAUAUUUAAAGCAGGUAGGUCGCCUACUAUAGC [Arginine B K4 13]	108 nM
UUUUUGGUUUAGAGUGAUGUUCCUUGUAUUCGAGGACCGGUACGGCCGCCACUCGAAUAGAAAAGAAAAGAAAAGAGUGAUGUUU [BDazzled - #3 SS Tryptophan A]	292 nM
UGUACUAUUGUGAGUGAUGUUCACUUCGAUACCAGCAGAGCGAUCUGCCCUUGGCAGCGAGUUAACUGCCGAAAGGCAAGGAUUA [Theo B SS t9]	546 nM
AGGAUGUAGUGAUGUUAUAUAAGAAGUAAACGAGGACCGGUACGGCCGCCACUCGAAGCGGCUACUAGCGCGUUGCGAGGUGCGC [ExTryptoA.Cc]	372 nM
CUAUAGACCCUUCGGAUAGUGAUGUUGUCACGAGGACCGGUACGGCCGCCACUCGCUGCCACCAUACCGCUUCACGGAACGAGCA [theeternabot_exclusion_KL_Trp_A_7]	503 nM
AAACAACUUGACGAUACCAGCUUACUCGGCAAGCCAGUGAUGUUGGUGAAAAGGAGUCAAAGCCCUUGGCAGCGUCGAAGGUCUG [Raatarerin]	304 nM
CGCCGCAACUGAAGGAGCGCGCCAGUGAUGUUGGACGGCUUUGUCAAGGAAACUGCACCGGUGCAGGUAGGUCGCAGUUCGCGGU [Dilea]	297 nM
GUAUGUGGAAACACGUACUUGUAUCCUAGGCAGGAUAUGCGGAAACGCAGAAGGGCCACCGGCGAGUUUAUCCAGUGAUGUUGGA [Ex FMN A 9]	291 nM
AAUAAAAUCACGGCCGCCACUGAAUAAUUACAAAGUAGUGAUGUUACUUUACAUAUCUUAUUUAACAGGACCGGGUGAAUAUUUA [JR_ExcTryptoB_Sub007]	76.2 nM
GAACGGCGGGCGGCCGCCACUGGUAUACGAGUGAUGUUCGGAUAUACAUAAAAUAAGGUAAUUAACAGGACCGGGUCAGAGCCGG [Tryptophan B Same State; Euphoria Solution]	165 nM
GAACAUAGUAAAGGAUAUUCCUGCCUCGCGCGAUUGAUUAGUGAUGUUGACGAUAUCGCUUUGAGGGAAGAAGGUUAACAAGUCA [theeternabot_exclusion_KL_FMN_B_4]	678 nM
CCGGAUUAUGCGGCCGCCACUGAGAAAUUGGAGGUACGCCCUCCCGAUAGUGAUGUUAUCCAUUACAGGACCGGGCAUCUCCUCU [theeternabot_sameState_KL_Trp_B_23]	893 nM
UUAUUAAUCACAGAUACCAGUCCAGAAUGAAUACUAUAGUGAUGUUAUAAUAAAGGGAAGGACCCUUGGCAGCUGUAAUAUAUUU [AstrosSsTheB#2]	499 nM
AAGUUUUAUAAACUCAUGGUUUCGUCAGAUACCAGCCUCGAGAGAGGCCCUUGGCAGCUGCAUGAGUGAUGUUCAUGUUCGAAGA [KL_XTheoA8]	374 nM
GGGAGUAGUGCGGCCGCCACUGUGAGGGAAGAAGAAUAUAGUGAUGUUAUAUAGGAAGGGAAGAAUAGGACCGGGCAUUAGAUUU [SSTRyptB.aB]	245 nM
UCCUAGGCUCGAAAGAGCCUAGGAUUUACUCAGGAUAUCCGGAAACGGAGAAGGGAGUGACUAGUGAUGUUAGGGACUCCCUAAA	95.5 nM
AAAUAUAGUGAUGUUAUAUAUAUAUGUGAUACCAGAGAAAGAAAACUCCCUUGGCAGCACGAGAGAGAAUUUUUUUUUUAUAUAU [AstrosSSTheA#1]	552 nM
GGGUCAUGGAACGGAUAAGUGAUGUUUACCCGAGGACCGGUACGGCCGCCACUCGGUCGUUAUUUCCGACGUGCUGGUAAGACUA [theeternabot_exclusion_KL_Trp_A_10]	378 nM
AGACUACUGACAGGAUAUAACAUCCUAGUCGUAUACCGAAAGGUAUACGAUUCCCUUCUAGUGAUGUUAGAAGGGUCGGUAGUCA [Omei KL FMN B Exc B v13]	103 nM
UGUGUUUACCUGACUCAGUGAUGUUGAGAAGGAGCGUGAGAAGGCACAGGUAGGUCGCUCAACCUAAAUUCAGGUGAGCACUAAA	173 nM
UUUAUAUAGUCGGCCGCCACUGAUUUUUUUAUAUGUUUAUGUUUAUACGAGUGAUGUUCGAUAUACAGGACCGGGACUUUGGUUA [JR_SSTryptoB_Sub019]	159 nM

Reference: the supplement of paper PMC9170038
